Patent US11896642
No end group written: not given here.

Columns and labels:
[1] = target: biotin labeled PDGF-BB (R&D Systems) (UniProt P01127); experiment: competitive ELISA: biotin PDGF-BB pre-incubated with conjugate at 1 mg/mL, added to plate-coated PDGF-Rβ Fc; A450 against reference Compound 1 (higher = less inhibition)
[2] = target: Rat tail monomeric collagen I (Corning) (rat) (UniProt P02454); experiment: competitive ELISA on plate-coated rat tail collagen I, competitor biotin Compound 1B; IC50 against that of Compound 1

UniProt P01127, sequence (P01127 82-190): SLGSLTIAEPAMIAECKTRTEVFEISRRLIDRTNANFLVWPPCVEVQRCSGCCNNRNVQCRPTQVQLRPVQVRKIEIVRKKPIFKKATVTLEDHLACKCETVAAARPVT

ratio Absorbance 450 conjugate/Absorbance 450 reference [1]	ratio IC50sample/IC50 Compound 1 [2]	Binder
16.3	2.82	GQLYKSILYGSGSGSRR (not fully specified (C-terminus); also: several peptides per HA backbone, peptide load 20) [HA108 backbone HA, 20PM]
14.2	13.4	GQLYKSILYGSGSGSRR (not fully specified (C-terminus); also: several peptides per HA backbone, peptide load 30) [HA108 backbone HA, 30PM]
17	14.8	GQLYKSILYGSGSGSRR (not fully specified (C-terminus); also: several peptides per HA backbone, peptide load 10) [HA108 backbone HA, 10PM]
9.31	7.49	GQLYKSILYGSGSGSRR (not fully specified (C-terminus); also: several peptides per HA backbone, peptide load 50) [HA108 backbone HA, 50PM]
